In this assay the target is asialofetuin (UniProt P12763). In words: ELISA. On the technique in general: ELISA stands for enzyme-linked immunosorbent assay.
Chain of UniProt P12763 (P12763 19-359): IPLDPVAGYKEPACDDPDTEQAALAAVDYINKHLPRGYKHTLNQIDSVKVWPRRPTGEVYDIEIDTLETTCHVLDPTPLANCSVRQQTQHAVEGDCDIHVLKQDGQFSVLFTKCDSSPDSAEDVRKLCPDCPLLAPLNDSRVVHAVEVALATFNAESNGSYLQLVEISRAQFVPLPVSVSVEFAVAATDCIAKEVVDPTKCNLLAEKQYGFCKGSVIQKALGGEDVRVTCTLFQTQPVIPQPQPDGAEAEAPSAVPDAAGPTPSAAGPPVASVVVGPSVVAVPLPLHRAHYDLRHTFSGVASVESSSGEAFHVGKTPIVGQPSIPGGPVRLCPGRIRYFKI

As for “PX-Gal3_(Δ116) (fusion protein of APEX2 and galectin-3 lacking the N-terminal domain) (domain or fragment)”, the half-maximal effective concentration (EC50) – broadly, the concentration giving half of the maximal effect – is 140 nM.

The values above are taken from paper PMC7959530.
